Experimental data from patent publication US20180215829A1 (CRESCENDO BIOLOGICS, published 2018).
Positions count from the first letter of the chain named. Read-outs that look alike come from different tables or passages of the source. Each block holds one binder with its values, some of them ahead of it.

Legend:
[1] = target: T1, recombinant human IL-17RA Fc fusion protein (R&D Systems 177-IR-100) (human, UniProt Q96F46 33-320); assay: BIAcore T200 single-cycle kinetics, IL-17RA-Fc captured on protein G chip, VH as analyte
T1 construct: Bought protein; not shown: Fc domain of human IgG1
T1 sequence: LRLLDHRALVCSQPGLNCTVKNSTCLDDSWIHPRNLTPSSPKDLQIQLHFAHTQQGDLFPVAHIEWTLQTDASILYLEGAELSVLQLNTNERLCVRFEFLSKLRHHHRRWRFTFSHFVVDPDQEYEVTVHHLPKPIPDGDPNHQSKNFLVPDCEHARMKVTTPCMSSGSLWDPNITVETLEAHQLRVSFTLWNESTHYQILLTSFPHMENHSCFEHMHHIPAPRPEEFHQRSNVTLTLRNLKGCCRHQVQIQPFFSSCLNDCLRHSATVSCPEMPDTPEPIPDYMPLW
Protocol: (§1) Binding kinetics of anti-IL-17RA VH antibodies were measured on a BIAcore® T200 instrument. For IL-17RA, first a protein G chip was prepared by diluting protein G to 20 ug/ml in acetate buffer, pH 4 (BIAcore®, cat# BR-100-49) and then coupled 1200 RU to a CM5 Series S chip using amine coupling chemistry. This surface was then used to capture IL-17RA Fc fusion protein from solution: IL-17RA at 10 ug/ml in HBS injected for 10 seconds at 30 ul/min flow rate would capture approximately 100-150 RU of IL-17RA onto the protein G surface.
(§2) Binding kinetics of anti-IL-17RA VH antibodies were determined by single-cycle kinetics. VH antibodies were prepared in dilution series (typically 1:3 dilution series starting with 100 nM VH at the highest concentration), and then injected over the antigen coated surfaces and also a blank surface, starting with the lowest concentration of VH and then working progressively up to the highest concentration. VH binding kinetics were then determined from the (blank subtracted) sensorgram traces using 1:1 binding models and BIAevaluation software.

[2] = target: T2, human IL-17RA on HT1080 cells (human, UniProt Q96F46 33-866); assay: cell-based or functional assay
T2 sequence: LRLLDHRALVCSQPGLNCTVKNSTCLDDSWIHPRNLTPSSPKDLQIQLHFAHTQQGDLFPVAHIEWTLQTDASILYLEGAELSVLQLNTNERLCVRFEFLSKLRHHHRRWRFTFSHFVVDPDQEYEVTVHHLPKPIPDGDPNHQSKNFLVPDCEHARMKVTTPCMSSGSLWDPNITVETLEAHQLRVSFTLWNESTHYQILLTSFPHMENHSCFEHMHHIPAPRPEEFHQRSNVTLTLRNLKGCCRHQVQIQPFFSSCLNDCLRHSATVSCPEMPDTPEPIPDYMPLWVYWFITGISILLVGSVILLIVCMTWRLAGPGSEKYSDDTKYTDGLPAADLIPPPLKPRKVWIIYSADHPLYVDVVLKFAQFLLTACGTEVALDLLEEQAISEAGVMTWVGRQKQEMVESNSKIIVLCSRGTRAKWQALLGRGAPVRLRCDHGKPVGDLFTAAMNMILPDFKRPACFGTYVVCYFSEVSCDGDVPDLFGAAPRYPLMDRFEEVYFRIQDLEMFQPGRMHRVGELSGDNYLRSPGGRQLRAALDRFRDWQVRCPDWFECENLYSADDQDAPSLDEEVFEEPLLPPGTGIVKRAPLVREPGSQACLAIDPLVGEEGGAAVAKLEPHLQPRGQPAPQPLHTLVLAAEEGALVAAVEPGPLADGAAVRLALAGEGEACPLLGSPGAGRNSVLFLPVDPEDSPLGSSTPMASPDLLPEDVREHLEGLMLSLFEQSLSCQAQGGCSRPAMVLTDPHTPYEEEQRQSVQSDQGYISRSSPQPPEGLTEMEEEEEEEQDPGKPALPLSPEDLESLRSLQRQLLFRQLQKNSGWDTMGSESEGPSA

IL-17RB = target: T3, IL-17RB (UniProt Q9NRM6 18-289, limits assumed); assay: specificity ELISA, antigen coated, anti-His-HRP detection
T3 sequence (looked up): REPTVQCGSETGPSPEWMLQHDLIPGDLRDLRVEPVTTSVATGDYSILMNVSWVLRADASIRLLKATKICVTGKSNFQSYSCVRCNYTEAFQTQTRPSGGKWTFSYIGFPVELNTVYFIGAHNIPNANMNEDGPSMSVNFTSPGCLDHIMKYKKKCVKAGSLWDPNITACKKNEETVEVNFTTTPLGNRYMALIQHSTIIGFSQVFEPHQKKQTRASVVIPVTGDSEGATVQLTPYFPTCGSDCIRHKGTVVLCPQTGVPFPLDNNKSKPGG
Protocol: (§3) The binding ELISA for crude or purified VH was similar to the serum ELISA and phage ELISA, previously described, mostly differing in the final detection steps. Briefly, antigen was immobilised on maxisorb plates (Nunc 443404) by adding 50 ul volumes at 0.1-1 ug/ml in PBS and incubating at 4° C. overnight. Following coating, the antigen solution was aspirated and the plates were washed using PBS (prepared from PBS tablets, Oxoid cat no. BR0014G) supplemented with 0.05% Tween® 20 (sigma P1379), followed by washes with PBS without added Tween®. To block non-specific protein interactions, a solution of 3% skimmed milk powder (Marvel) in PBS was added to the wells and the plate was incubated for at least one hour at room temperature. Dilutions of periplasmic extract or purified VH in 3% Marvel/PBS were prepared in polypropylene tubes or plates and incubated for at least one hour at room temperature prior to transfer to the blocked ELISA plate where a further incubation of at least one hour took place. Unbound protein was then washed away using repetitive washes with PBS/Tween® followed by PBS. A solution of HRP-conjugated anti-His Ab (Miltenyi Biotec, 130-092-785), prepared at 1:1000 dilution in PBS/3% Marvel was then added to each well and a further incubation at room temperature for at least one hour took place. Unbound detection antibody was removed by repeated washing using PBS/Tween® and PBS. The ELISA was then developed using TMB substrate (Sigma cat. no. T0440) and the reaction was stopped after 10 minutes by the addition of 0.5M H₂SO₄ solution (Sigma cat. no. 320501). Absorbances were determined by reading at 450 nm.

IL-17RD = target: T4, IL-17RD (UniProt Q8NFM7 17-299, limits assumed); assay: as above
T4 sequence (looked up): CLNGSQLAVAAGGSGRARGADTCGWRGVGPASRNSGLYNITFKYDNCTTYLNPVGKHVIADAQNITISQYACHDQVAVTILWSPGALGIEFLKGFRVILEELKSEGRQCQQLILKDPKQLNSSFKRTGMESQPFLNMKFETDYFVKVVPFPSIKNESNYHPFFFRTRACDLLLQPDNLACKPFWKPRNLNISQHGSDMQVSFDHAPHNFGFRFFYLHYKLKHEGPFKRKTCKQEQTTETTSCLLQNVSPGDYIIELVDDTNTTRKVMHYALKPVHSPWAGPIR
Protocol: as §3

[3] = target: T1, recombinant human IL-17RA Fc fusion …; assay: IL-17RA ligand inhibition ELISA (FIG. 10B): VH competes with IL-17A for coated IL-17RA-Fc
Protocol: (§4) VH, both purified and crude periplasmic extracts, were also tested for their ability to inhibit the interaction of IL-17A with recombinant IL-17RA-Fc. […] Following washing of excess coating antigen, as described above, the wells of the plate were incubated with 3% Marvel/PBS to block non-specific protein interactions. VH preparations, crude periplasmic extracts or purified VH, or suitable controls, were prepared with 1 nM recombinant IL-17A (Peprotech, cat# AF-200-17) in 3% skimmed milk powder/PBS solution in polypropylene plates or tubes. The mixture was then transferred to the assay plate and incubated for 1 hour at room temperature. Excess protein was removed by washing and bound IL-17A was detected by incubation with biotinylated anti-IL-17A Mab (R & D Systems, cat BAF317) followed by the addition of neutravidin-HRP (Pierce, cat#31030) and TMB substrate (Sigma, cat# T0440). The TMB reaction was stopped by addition of 0.5M H₂SO₄ and absorbances were measured at 450 nm in a plate reader.

[4] = target: T1, recombinant human IL-17RA Fc fusion …; assay: receptor/ligand biochemical inhibition ELISA: VH competes with 1 nM IL-17A for coated IL-17RA-Fc
Protocol: as §4

[5] = target: T1, recombinant human IL-17RA Fc fusion …; assay: BIAcore T200 single-cycle kinetics, IL-17RA-Fc captured on protein G chip, VH as analyte; remark: listed apart in the source
Protocol: as §1, §2

[6] = target: T2, human IL-17RA on HT1080 cells; assay: cell-based or functional assay; remark: listed apart in the source
[7] = target: T1, recombinant human IL-17RA Fc fusion …; assay: receptor/ligand biochemical inhibition ELISA: VH competes with 1 nM IL-17A for coated IL-17RA-Fc; remark: listed apart in the source
Protocol: as §4

[8] = target: T2, human IL-17RA on HT1080 cells; assay: cell-based or functional assay; remark: listed apart in the source

Kd [1]: 370 nM
Cell assay IC50 [2]: 1840 nM
B1: VH clone 7.1 (VHH)
VHH: EVQLVESGGGLVQPGGSLRLSCAASGFTFSNYWMSWVRQARGKGLEWVANIRPDGSERYYVDSVKGRFTISRDNAKNSLYLQMSSLRAEDTAVYYCARSRDWGSRAFDIWGQGTMVTVSS
notes: Human VH single domain antibody, no light chain; Parent clone of family 7

binding result (IL-17RB): no binding
binding result (IL-17RD): no binding
B2: VH 62A4 (VHH)
VHH: QVQLVESGGGLVQPGRSLTLSCTASGFTFHDYAMHWVRQPPGGGLEWVAGVSWNGNNVGYADSVKGRFTISRDNAKKSLYLQMNSLRSEDTALYYCAKGGMGSGSHPDSFSTWGQGTMVTVSS
notes: VH single domain

Kd [1]: 4.5 nM
Cell assay IC50 [2]: 282 nM
B3: VH clone 4.1 (VHH)
VHH: QVQLVQSGAEVKKPGASVKVSCKASGYPFTNYDISWIRQATGQSLEWMGWMNPDSGNTGYAQKFQGRVTMTRNTSISTAYMELSGLRSEDTAVYFCARGGYNAWRTDYWGQGTLVTVSS
notes: Human VH single domain antibody, no light chain; Parent clone of family 4

IC50 [3]: 6930 nM
B4: VH clone 4.55 (VHH)
VHH: QVQLQQSGAEVKKPGASVKVSCKASGYTFTSYDISWVRQATGQSLEYMGWMNPNSGNTGYAQKFQGRVTMTRNTSISTAYMELSSLRSEDTAVYYCARGGITEWRRDYWGQGTLVTVSS
notes: Human VH single domain antibody, no light chain; Family 4

IC50 [4]: 11 nM
Kd [1]: 9.6 nM
B5: VH clone 3.1 (VHH)
VHH: EVQLVESGGGLVQPGGSLRLSCAASGFPFSTYWMRWLRQAPGKGLEWVANINQDGSEKYYVDSVKGRFTISRDNAKSSLFLQMNSLRAEDTAVYYCARGWESGWFEPWGQGTLVTVSS
notes: Human VH single domain antibody, no light chain; Parent clone of family 3; also called VH 3.1

IC50 [3]: 22 nM
B6: VH clone 3.20 (VHH)
VHH: B5 VHH with E1Q, N52K, S77N
notes: Human VH single domain antibody, no light chain; Family 3; also called VH 3.20

Kd [5]: 2.5 nM
koff [5]: 0.00137 s⁻¹
kon [5]: 555000 M⁻¹ s⁻¹
Cell assay IC50 [6]: 118 nM
IC50 [7]: 1.3 nM
B7: VH clone 2.3 (VHH)
VHH: QVQLVQSGAEVKKPGASVKVSCKASGYPFTSYDINWVRQATGRSLEWMGWMNPTSGDTVYAQKFQDRVTMTRNTSISTAYMELSSLRSEDTAVYFCARGRRDNWKNNYWGQGTLVTVSS
notes: Human VH single domain antibody, no light chain; Optimised variant of clone 2.1

IC50 [4]: 80 nM
Kd [1]: 41 nM
Cell assay IC50 [2]: 73 nM
B8: VH clone 5.1 (VHH)
VHH: EVQLVESGGGLVKPGGSLRLSCEASGFTFSDFDMSWIRQAPGKGLEWVAYISSSDSTIYYRDSVKGRFTISRDNAKNSLYLQMNSLRAEDTAVYYCSRNGARYNWNYGDFQHWGQGTLVTVSS
notes: Human VH single domain antibody, no light chain; Parent clone of family 5

binding result (IL-17RB): no binding
binding result (IL-17RD): no binding
IC50 (nM), cell-based assay [8]: 141 nM
B9: VH clone 1.2 (VHH)
VHH: EVQLVESGGGLVQPGRSLRLSCAASGFTFDDYAMHWVRQAPGKGLEWVSGISWNSGRMDYADSVKGRFTISRDNAKNSLYLQMNSLRAEDTALYYCAKEKGLGYCRGGSCSYFDYRGQGTLVTVSS
notes: Human VH single domain antibody, no light chain; Family 1; also called VH 1.2

binding result (IL-17RB): no binding
binding result (IL-17RD): no binding
IC50 (nM), cell-based assay [8]: 39 nM
Kd [1]: 0.063 nM
Cell assay IC50 [2]: 4.7 nM
B10: VH clone 1.1 (VHH)
VHH: B9 VHH with E1Q, N77K, L93M, Y104F
notes: Human VH single domain antibody, no light chain; Parent clone of family 1; also called VH 1.1

Kd [1]: 31 nM
Cell assay IC50 [2]: 233 nM
B11: VH clone 6.1 (VHH)
VHH: EVQLVESGGGLVKPGGSLRLSCAASGFTFSDDYMSWLRQAPGKGLEWVSYISSSGSTIYYADSVKGRFTISRDNAKNSLYLQMNSLRAEDSAVYYCARKDITNIAVGSLGYWGQGTLVTVSS
notes: Human VH single domain antibody, no light chain; Parent clone of family 6
